Measurements from publication doi:10.1101/2022.02.23.481653 (bioRxiv, 2022).
Positions count from the first letter of the chain named. In names and notes the source's numbering stands.

Target: the molecule itself
Experiment: native gel or EMSA

B1: SEPT2-msfGFP (wild type) (natural protein)
chain: MSKQQPTQFINPETPGYVGFANLPNQVHRKSVKKGFEFTLMVVGESGLGKSTLINSLFLTDLYPERVIPGAAEKIERTVQIEASTVEIEERGVKLRLTVVDTPGYGDAINCRDCFKTIISYIDEQFERYLHDESGLNRRHIIDNRVHCCFYFISPFGHGLKPLDVAFMKAIHNKVNIVPVIAKADTLTLKERERLKKRILDEIEEHNIKIYHLPDAESDEDEDFKEQTRLLKASIPFSVVGSNQLIEAKGKKVRGRLYPWGVVEVENPEHNDFLKLRTMLITHMQDLQEVTQDLHYENFRSERLKRGGRKVENEDMNKDQILLEKEAELRRMQEMIARMQAQMQMQMQGGDGDGGALGHHV
With B1 the “stoichiometry N” value was 2.

B2: SEPT2NCmut-msfGFP (SEPT2 F20D, V27D) (natural protein)
chain: B1 chain with F20D, V27D
With B2 the “stoichiometry N” value was 2.
